Where two headings read alike, the source gives them in different places. Where a SMILES comes first, the peptide text is derived from it. Bridges are numbered along the chain shown (N, C = ends). [ ]: non-standard residue; d: D form. Trp(6-Cl) = N[C@@H](Cc1c[nH]c2cc(Cl)ccc12)C(=O)O; dTrp(6-Cl) = N[C@H](Cc1c[nH]c2cc(Cl)ccc12)C(=O)O; R8 = C=CCCCCCC[C@@](C)(N)C(=O)O; S5 = C=CCCC[C@](C)(N)C(=O)O

Assay [1] has as its target T1, Mdm4 (1-125) (Homo sapiens, UniProt O15151).
T1 construct: Mdm4 (1-125) were ligated into the GST fusion expression vector pGEX-6P-1; GST (N, cleaved yes); made in house; host or cells: E. coli BL21 DE3
T1 sequence (O15151 1-125): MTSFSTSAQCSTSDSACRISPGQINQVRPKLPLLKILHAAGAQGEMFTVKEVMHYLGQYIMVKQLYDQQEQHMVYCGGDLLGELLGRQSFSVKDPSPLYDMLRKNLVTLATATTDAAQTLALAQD
The experiment in a line: competitive fluorescence polarization/anisotropy, apparent Kd against Mdm4. Format: binding. Particulars: apparent Kd, competitive fluorescence polarization, Mdm4 75 nM, FAM peptide 50 nM. The protocol:
The cells expressing the GST fusion constructs were grown in LB medium at 37° C. to an OD600 of ˜0.6 and induction was started with 1 mM IPTG and carried out overnight at room temperature. Cells were harvested by centrifugation and the cell pellets were re-suspended in 50 mM Tris pH 8.0, 10% sucrose and were then sonicated. The sonicated sample was centrifuged for 60 mins at 17,000 g at 4° C. […] The column was then further washed by 6 volumes of wash buffer. Mdm2 and Mdm4 were then purified from the column by cleavage with Precission (GE Lifesciences) protease. 10 units of precission protease, in one column volume of PBS with 1 mM DTT buffer, were injected onto the column. The cleavage reaction was allowed to proceed overnight at 4° C. The cleaved protein was then eluted of the column with wash buffer. Protein fractions were analyzed with SDS page gel and concentrated using a Centricon (3.5 kDa MWCO) concentrator, Millipore. Mdm2 and Mdm4 protein samples were then dialyzed into a buffer solution containing 20 mM Bis-Tris, pH 6.5, 0.05M NaCl with 1 mM DTT and loaded onto a monoS column pre-equilibrated in buffer A (20 mM Bis-Tris, pH 6.5, 1 mM DTT). The column was then washed in 6 column volumes of buffer A and bound protein was eluted with a linear gradient of 1M NaCL over 25 column volumes. Protein fractions were analyzed with SDS page gel and concentrated using a Centricon (3.5 kDa MWCO) concentrator from Millipore.
Apparent Kd values were determined for a variety of molecules via competitive fluorescence anisotropy experiments. […] The competing molecules were then titrated against complex of the FAM labelled peptide and protein. Apparent Kd values were determined by fitting the experimental data to the equations shown below:
[L]st and [L]t denote labelled ligand and total unlabelled ligand input concentrations, respectively. Kd2 is the dissociation constant of the interaction between the unlabelled ligand and the protein. In all competitive types of experiments, it is assumed that [P]t>[L]st, otherwise considerable amounts of free labelled ligand would always be present and would interfere with measurements. […] The FAM-labelled peptide were dissolved in DMSO at 1 mM and diluted into experimental buffer. Readings were carried out with a Envision Multilabel Reader (PerkinElmer). […] All titrations were carried out in triplicate. Curve-fitting was carried out using Prism 4.0 (GraphPad).
(Fluorescence polarisation rises when a labelled molecule tumbles more slowly, as on binding a larger partner.)

Assay [2] deals with p53 responsive LacZ reporter gene in T22 cell line. The experiment in a line: T22 p53 β-galactosidase based reporter assay. The assay is classed as cell-based, murine. Conditions: 18 hours, DMEM with 10% FBS. The protocol: T22 cells, which were stably transfected with a p53 responsive […] reporter, were seeded into 96-well plate at a cell density of 8000 cells per well. […] Measurements were carried out using a Safire II multiplate reader (TECAN). Experiments were carried out independently twice.
(In a reporter assay the amount or activity of a reporter protein is the signal.)

The target of assay [3] is T2, Mdm4 (1-125) (human, UniProt O15151 1-125).
T2 construct: range 1-125; also called MDMX; Hdm4
T2 sequence (looked up): T1 sequence (O15151 1-125)
The experiment in a line: apparent Kd, competitive fluorescence polarization; displacement of FAM-…-NH2 from Mdm4 (1-125).

In assay [4] the target is T3, Mdm2 (1-125) (human, UniProt Q00987 1-125).
T3 construct: range 1-125; also called Hdm2
T3 sequence (Q00987 1-125 limits assumed): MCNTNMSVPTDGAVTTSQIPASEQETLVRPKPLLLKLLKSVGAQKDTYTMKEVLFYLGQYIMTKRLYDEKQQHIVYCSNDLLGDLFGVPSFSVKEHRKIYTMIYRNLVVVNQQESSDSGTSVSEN
The experiment in a line: apparent Kd, competitive fluorescence polarization; displacement of FAM-…-NH2 from Mdm2 (1-125).

Assay [5] addresses T2, Mdm4 (1-125). The experiment in a line: apparent Kd, competitive fluorescence polarization; displacement of FAM-…-NH2 from Mdm4 (1-125). The source holds these as a separate data set.

On to `CC(=O)N[C@H](C(=O)N[C@@H](CO)C(=O)N[C@@H](Cc1ccccc1)C(=O)N[C@]1(C)CCCCCCC=CCCC[C@@](C)(C(N)=O)NC(=O)[C@H](CC(C)C)NC(=O)[C@H](CC(C)C)NC(=O)[C@H](C)NC(=O)[C@@H](Cc2c[nH]c3cc(Cl)ccc23)NC(=O)[C@H](Cc2ccc(O)cc2)NC(=O)[C@H](CCC(=O)O)NC1=O)[C@@H](C)O` [sMTide-02B, Ac-^1TSFXEY(D-6-Cl)WALLX^11-NH2], for which the “Mdm4 Kd” value in assay [1] is “attenuated”. The “p53 transcriptional activity in T22 p53 reporter assay” value in assay [2] is reported as “negligible activity”. Consider `CC(=O)N[C@H](C(=O)N[C@@H](CO)C(=O)N[C@@H](Cc1ccccc1)C(=O)N[C@]1(C)CCCCCCC=CCCC[C@@](C)(C(N)=O)NC(=O)[C@H](CC(C)C)NC(=O)[C@H](CC(C)C)NC(=O)[C@H](Cc2ccccc2)NC(=O)[C@H](Cc2c[nH]c3ccccc23)NC(=O)[C@H](Cc2ccc(O)cc2)NC(=O)[C@H](CCC(=O)O)NC1=O)[C@@H](C)O` [sMTide-07, Ac-^1TSFXEYWFLLX^11-NH2] (Ac-TSF[R8]EYWFLL[S5]-NH2; staple 4-11), for which the “p53 transcriptional activity in T22 p53 reporter assay” value in assay [2] was “diminish the ability of sMTide-07 to induce p53, compared to sMTide-06”.

B1: sMTide-05 (peptide)
peptide: Ac-TSF[R8]EYWKLL[S5]-NH2
modifications: staple 4-11
SMILES: CC(=O)N[C@H](C(=O)N[C@@H](CO)C(=O)N[C@@H](Cc1ccccc1)C(=O)N[C@]1(C)CCCCCCC=CCCC[C@@](C)(C(N)=O)NC(=O)[C@H](CC(C)C)NC(=O)[C@H](CC(C)C)NC(=O)[C@H](CCCCN)NC(=O)[C@H](Cc2c[nH]c3ccccc23)NC(=O)[C@H](Cc2ccc(O)cc2)NC(=O)[C@H](CCC(=O)O)NC1=O)[C@@H](C)O
notes: also called Ac-TSFXEYWKLLX-NH2
As to B1, the Kd in assay [3] came to 29.9 nM; in assay [4], 26.3 nM.

B2: sMTide-06 (peptide)
peptide: Ac-TSF[R8]EYWYLL[S5]-NH2
modifications: staple 4-11
SMILES: CC(=O)N[C@H](C(=O)N[C@@H](CO)C(=O)N[C@@H](Cc1ccccc1)C(=O)N[C@]1(C)CCCCCCC=CCCC[C@@](C)(C(N)=O)NC(=O)[C@H](CC(C)C)NC(=O)[C@H](CC(C)C)NC(=O)[C@H](Cc2ccc(O)cc2)NC(=O)[C@H](Cc2c[nH]c3ccccc23)NC(=O)[C@H](Cc2ccc(O)cc2)NC(=O)[C@H](CCC(=O)O)NC1=O)[C@@H](C)O
notes: also called Ac-TSFXEYWYLLX-NH2
For the molecule B2, the Kd in assay [3] was 328 nM; in assay [4], 128 nM.

B3: sMTide-07 (peptide)
peptide: Ac-TSF[R8]EYWFLL[S5]-NH2
modifications: staple 4-11
SMILES: CC(=O)N[C@H](C(=O)N[C@@H](CO)C(=O)N[C@@H](Cc1ccccc1)C(=O)N[C@]1(C)CCCCCCC=CCCC[C@@](C)(C(N)=O)NC(=O)[C@H](CC(C)C)NC(=O)[C@H](CC(C)C)NC(=O)[C@H](Cc2ccccc2)NC(=O)[C@H](Cc2c[nH]c3ccccc23)NC(=O)[C@H](Cc2ccc(O)cc2)NC(=O)[C@H](CCC(=O)O)NC1=O)[C@@H](C)O
notes: also called Ac-TSFXEYWFLLX-NH2
As to B3, the Kd came out at 394 nM in assay [3] and 175 nM in assay [4].

B4: sMTide-04 (peptide)
peptide: Ac-SF[R8]EYWALL[S5]-NH2
modifications: staple 3-10
SMILES: CC(=O)N[C@@H](CO)C(=O)N[C@@H](Cc1ccccc1)C(=O)N[C@]1(C)CCCCCCC=CCCC[C@@](C)(C(N)=O)NC(=O)[C@H](CC(C)C)NC(=O)[C@H](CC(C)C)NC(=O)[C@H](C)NC(=O)[C@H](Cc2c[nH]c3ccccc23)NC(=O)[C@H](Cc2ccc(O)cc2)NC(=O)[C@H](CCC(=O)O)NC1=O
notes: also called Ac-SFXEYWALLX-NH2
In the case of B4, the Kd in assay [3] is 63 nM; in assay [4] it was 104 nM.

B5: sMTide-02A (peptide)
peptide: Ac-TSF[R8]EY[Trp(6-Cl)]ALL[S5]-NH2
modifications: staple 4-11
notes: also called Ac-TSFXEY(L-6-Cl)WALLX-NH2; L-isomer
In the case of B5, the Kd in assay [5] was 1360 nM.

B6: sMTide-02B (peptide)
peptide: Ac-TSF[R8]EY[dTrp(6-Cl)]ALL[S5]-NH2
modifications: staple 4-11
notes: also called Ac-TSFXEY(D-6-Cl)WALLX-NH2; D-isomer
For B6, in assay [5], the Kd worked out at 2160 nM.

For the origin of these results see patent US20150246946A1, “PEPTIDES AND METHODS FOR TREATING CANCER” (AGENCY FOR SCIENCE, TECHNOLOGY AND RESEARCH, priority 2012, published 2015).
